Blank lines part the entries; values can stand above or below the substance they belong to.
Experiments:
Assay in all cases: cell-based or functional assay
[1] = molecular target: murine LFA-3 (CD48) (murine) (UniProt P18181)
[2] = molecular target: murine Intercellular adhesion molecule-1 (ICAM-1, CD54) (murine) (UniProt P13597)
[3] = molecular target: murine B7-1 (CD80) (murine) (UniProt Q00609)
UniProt Q00609, sequence (Q00609 38-306): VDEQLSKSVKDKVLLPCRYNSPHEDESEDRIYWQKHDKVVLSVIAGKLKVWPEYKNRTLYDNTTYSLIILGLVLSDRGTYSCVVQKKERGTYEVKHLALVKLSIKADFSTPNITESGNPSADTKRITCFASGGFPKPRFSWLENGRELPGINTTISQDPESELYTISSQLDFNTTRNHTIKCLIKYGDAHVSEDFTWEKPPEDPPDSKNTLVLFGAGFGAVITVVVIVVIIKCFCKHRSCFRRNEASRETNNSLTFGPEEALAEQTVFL

UniProt P13597, sequence (P13597 28-537): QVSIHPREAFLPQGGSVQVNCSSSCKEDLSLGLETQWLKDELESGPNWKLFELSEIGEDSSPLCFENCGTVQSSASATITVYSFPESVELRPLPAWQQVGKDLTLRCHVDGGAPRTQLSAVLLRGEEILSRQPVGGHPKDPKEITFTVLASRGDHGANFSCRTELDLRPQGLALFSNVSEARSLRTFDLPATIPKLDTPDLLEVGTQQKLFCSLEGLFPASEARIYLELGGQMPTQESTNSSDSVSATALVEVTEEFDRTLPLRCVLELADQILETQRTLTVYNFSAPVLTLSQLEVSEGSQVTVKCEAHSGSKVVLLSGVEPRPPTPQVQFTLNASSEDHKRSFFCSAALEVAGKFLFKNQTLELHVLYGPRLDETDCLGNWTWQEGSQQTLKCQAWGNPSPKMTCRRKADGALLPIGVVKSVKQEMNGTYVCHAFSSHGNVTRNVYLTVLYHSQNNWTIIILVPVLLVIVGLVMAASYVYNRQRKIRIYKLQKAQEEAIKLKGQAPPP
UniProt P18181, sequence (P18181 23-217): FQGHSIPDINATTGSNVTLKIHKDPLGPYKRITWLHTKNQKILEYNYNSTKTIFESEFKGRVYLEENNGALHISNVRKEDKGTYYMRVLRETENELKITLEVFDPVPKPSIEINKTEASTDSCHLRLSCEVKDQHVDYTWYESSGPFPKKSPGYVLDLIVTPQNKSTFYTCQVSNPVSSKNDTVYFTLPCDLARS

- reduction of the increased T-cell proliferation (3H-Thymidine) induced by MC38/LFA-3 stimulator cells with Con A [1]: 98%
Substance: Hamster anti-murine CD48 (BCM-1; clone HM48-1) (antibody)

Substance: Hamster anti-murine CD54 (ICAM-1; clone 3E2) (antibody)
- reduction of the increased T-cell proliferation (3H-Thymidine) induced by MC38/ICAM-1 stimulator cells with Con A [2]: 88%

- inhibition of the increased T-cell proliferation (3H-Thymidine) induced by MC38/B7-1 stimulator cells with Con A [3]: 83%
Substance: Hamster anti-murine CD80 (B7-1; clone 16-10A1) (antibody)

From patent EP1865065A1
